Measured values: the supplement of paper PMC10567573

B1: PTPN9 (parent)
chain: TQHLPRECLPENLGGYVKIDLATW

Variants of: B1
Assay: protein stability index of a GFP-peptide fusion (GPS, HEK-293T) (PSI 1-6); higher = more stable
Settings: c terminus: a fixed tail appended
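Further: lentivirally expressed fusions sorted by FACS into six bins by GFP to DsRed ratio, PSI derived from sequencing read proportions per bin multiplied by bin number.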

Variant	protein stability index
TQHLPRECYPENLGGYVKIDLATW [L9Y]	1.97
TQHLPRECNPENLGGYVKIDLATW [L9N]	1.97
TQHLPRECCPENLGGYVKIDLATW [L9C]	1.73
TQHLPRECSPENLGGYVKIDLATW [L9S]	1.75
TQHLPRECAPENLGGYVKIDLATW [L9A]	2.55
TQHLPRECVPENLGGYVKIDLATW [L9V]	1.65
TQHLPRECIPENLGGYVKIDLATW [L9I]	1.85
TQHLPRECWPENLGGYVKIDLATW [L9W]	1.9
TQHLPRECGPENLGGYVKIDLATW [L9G]	1.61
TQHLPRECFPENLGGYVKIDLATW [L9F]	1.94
TQHLPRECQPENLGGYVKIDLATW [L9Q]	2.01
TQHLPRECTPENLGGYVKIDLATW [L9T]	2.01
TQHLPRECHPENLGGYVKIDLATW [L9H]	1.73
TQHLPRECKPENLGGYVKIDLATW [L9K]	2.47
TQHLPRECEPENLGGYVKIDLATW [L9E]	2.22
TQHLPRECPPENLGGYVKIDLATW [L9P]	2.18
TQHLPRECMPENLGGYVKIDLATW [L9M]	2.03
TQHLPRECDPENLGGYVKIDLATW [L9D]	2.24
TQHLPRECRPENLGGYVKIDLATW [L9R]	1.77
TQHLPRECLPEELGGYVKIDLATW [N12E]	3.02
TQHLPRECLPEFLGGYVKIDLATW [N12F]	1.55
TQHLPRECLPEWLGGYVKIDLATW [N12W]	1.51
TQHLPRECLPEMLGGYVKIDLATW [N12M]	1.96
TQHLPRECLPEPLGGYVKIDLATW [N12P]	1.49

Variant	protein stability index
TQHLPRECLPEVLGGYVKIDLATW [N12V]	2.03
TQHLPRECLPEILGGYVKIDLATW [N12I]	1.79
TQHLPRECLPELLGGYVKIDLATW [N12L]	1.76
TQHLPRECLPERLGGYVKIDLATW [N12R]	1.53
TQHLPRECLPEHLGGYVKIDLATW [N12H]	1.92
TQHLPRECLPEKLGGYVKIDLATW [N12K]	1.8
TQHLPRECLPEYLGGYVKIDLATW [N12Y]	2.52
TQHLPRECLPEDLGGYVKIDLATW [N12D]	1.93
TQHLPRECLPEGLGGYVKIDLATW [N12G]	2
TQHLPRECLPESLGGYVKIDLATW [N12S]	2.21
TQHLPRECLPEALGGYVKIDLATW [N12A]	2.41
TQHLPRECLPECLGGYVKIDLATW [N12C]	1.92
TQHLPRECLPEQLGGYVKIDLATW [N12Q]	1.91
TQHLPRECLPETLGGYVKIDLATW [N12T]	1.82
TQHLPREHLPENLGGYVKIDLATW [C8H]	2.56
TQHLPREYLPENLGGYVKIDLATW [C8Y]	2.11
TQHLPRERLPENLGGYVKIDLATW [C8R]	1.69
TQHLPREMLPENLGGYVKIDLATW [C8M]	1.81
TQHLPREILPENLGGYVKIDLATW [C8I]	1.7
TQHLPREFLPENLGGYVKIDLATW [C8F]	2.3
TQHLPREPLPENLGGYVKIDLATW [C8P]	2.16
TQHLPREQLPENLGGYVKIDLATW [C8Q]	2.29
TQHLPREGLPENLGGYVKIDLATW [C8G]	1.78
TQHLPREALPENLGGYVKIDLATW [C8A]	2.16

Variant	protein stability index
TQHLPRENLPENLGGYVKIDLATW [C8N]	2.15
TQHLPRESLPENLGGYVKIDLATW [C8S]	2.04
TQHLPRELLPENLGGYVKIDLATW [C8L]	1.8
TQHLPREWLPENLGGYVKIDLATW [C8W]	1.72
TQHLPREELPENLGGYVKIDLATW [C8E]	2.24
TQHLPREDLPENLGGYVKIDLATW [C8D]	2.48
TQHLPREKLPENLGGYVKIDLATW [C8K]	1.93
TQHLPRETLPENLGGYVKIDLATW [C8T]	2.19
TQHLPREVLPENLGGYVKIDLATW [C8V]	2.02
TQHLPRECLPENLWGYVKIDLATW [G14W]	2.02
TQHLPRECLPENLMGYVKIDLATW [G14M]	2.03
TQHLPRECLPENLCGYVKIDLATW [G14C]	1.55
TQHLPRECLPENLKGYVKIDLATW [G14K]	1.68
TQHLPRECLPENLFGYVKIDLATW [G14F]	1.93
TQHLPRECLPENLSGYVKIDLATW [G14S]	2.07
TQHLPRECLPENLEGYVKIDLATW [G14E]	2.15
TQHLPRECLPENLRGYVKIDLATW [G14R]	2.04
TQHLPRECLPENLIGYVKIDLATW [G14I]	1.74
TQHLPRECLPENLNGYVKIDLATW [G14N]	2.19
TQHLPRECLPENLQGYVKIDLATW [G14Q]	1.96
TQHLPRECLPENLYGYVKIDLATW [G14Y]	2.45
TQHLPRECLPENLDGYVKIDLATW [G14D]	2.99
TQHLPRECLPENLLGYVKIDLATW [G14L]	1.43
TQHLPRECLPENLPGYVKIDLATW [G14P]	2.38

Variant	protein stability index
TQHLPRECLPENLAGYVKIDLATW [G14A]	1.96
TQHLPRECLPENLHGYVKIDLATW [G14H]	1.91
TQHLPRECLPENLVGYVKIDLATW [G14V]	2.35
TQHLPRECLPENLTGYVKIDLATW [G14T]	1.46
TQHLPRECLPENLGEYVKIDLATW [G15E]	2.26
TQHLPRECLPENLGRYVKIDLATW [G15R]	2.11
TQHLPRECLPENLGMYVKIDLATW [G15M]	2.81
TQHLPRECLPENLGFYVKIDLATW [G15F]	2.44
TQHLPRECLPENLGIYVKIDLATW [G15I]	2.16
TQHLPRECLPENLGLYVKIDLATW [G15L]	1.73
TQHLPRECLPENLGQYVKIDLATW [G15Q]	1.38
TQHLPRECLPENLGHYVKIDLATW [G15H]	1.76
TQHLPRECLPENLGTYVKIDLATW [G15T]	1.35
TQHLPRECLPENLGDYVKIDLATW [G15D]	2.2
TQHLPRECLPENLGVYVKIDLATW [G15V]	1.62
TQHLPRECLPENLGAYVKIDLATW [G15A]	1.67
TQHLPRECLPENLGCYVKIDLATW [G15C]	2.36
TQHLPRECLPENLGWYVKIDLATW [G15W]	2.88
TQHLPRECLPENLGNYVKIDLATW [G15N]	1.93
TQHLPRECLPENLGSYVKIDLATW [G15S]	1.92
TQHLPRECLPENLGPYVKIDLATW [G15P]	2.63
TQHLPRECLPENLGKYVKIDLATW [G15K]	2.63
TQHLPRECLPENLGYYVKIDLATW [G15Y]	2.16
TQHLPRECLPYNLGGYVKIDLATW [E11Y]	1.77

Variant	protein stability index
TQHLPRECLPNNLGGYVKIDLATW [E11N]	1.41
TQHLPRECLPQNLGGYVKIDLATW [E11Q]	1.71
TQHLPRECLPFNLGGYVKIDLATW [E11F]	1.8
TQHLPRECLPMNLGGYVKIDLATW [E11M]	2.46
TQHLPRECLPANLGGYVKIDLATW [E11A]	1.97
TQHLPRECLPTNLGGYVKIDLATW [E11T]	1.45
TQHLPRECLPCNLGGYVKIDLATW [E11C]	1.52
TQHLPRECLPSNLGGYVKIDLATW [E11S]	2.04
TQHLPRECLPHNLGGYVKIDLATW [E11H]	1.48
TQHLPRECLPGNLGGYVKIDLATW [E11G]	1.41
TQHLPRECLPRNLGGYVKIDLATW [E11R]	1.62
TQHLPRECLPPNLGGYVKIDLATW [E11P]	1.63
TQHLPRECLPLNLGGYVKIDLATW [E11L]	2.73
TQHLPRECLPWNLGGYVKIDLATW [E11W]	1.56
TQHLPRECLPVNLGGYVKIDLATW [E11V]	1.58
TQHLPRECLPINLGGYVKIDLATW [E11I]	1.89
TQHLPRECLPKNLGGYVKIDLATW [E11K]	1.79
TQHLPRECLPDNLGGYVKIDLATW [E11D]	1.84
TQHLPRECLPENPGGYVKIDLATW [L13P]	2.17
TQHLPRECLPENQGGYVKIDLATW [L13Q]	2.2
TQHLPRECLPENHGGYVKIDLATW [L13H]	2.21
TQHLPRECLPENRGGYVKIDLATW [L13R]	2.43
TQHLPRECLPENVGGYVKIDLATW [L13V]	2.17
TQHLPRECLPENKGGYVKIDLATW [L13K]	1.96

Variant	protein stability index
TQHLPRECLPENTGGYVKIDLATW [L13T]	2.28
TQHLPRECLPENCGGYVKIDLATW [L13C]	1.55
TQHLPRECLPENMGGYVKIDLATW [L13M]	2.27
TQHLPRECLPENFGGYVKIDLATW [L13F]	1.41
TQHLPRECLPENSGGYVKIDLATW [L13S]	2.41
TQHLPRECLPENNGGYVKIDLATW [L13N]	2.58
TQHLPRECLPENDGGYVKIDLATW [L13D]	2.65
TQHLPRECLPENGGGYVKIDLATW [L13G]	1.98
TQHLPRECLPENEGGYVKIDLATW [L13E]	3.46
TQHLPRECLPENIGGYVKIDLATW [L13I]	1.91
TQHLPRECLPENAGGYVKIDLATW [L13A]	2.5
TQHLPRECLPENYGGYVKIDLATW [L13Y]	1.91
TQHLPRECLPENWGGYVKIDLATW [L13W]	2.54
TQHLPRECLPENLGGEVKIDLATW [Y16E]	3.37
TQHLPRECLPENLGGKVKIDLATW [Y16K]	3.1
TQHLPRECLPENLGGRVKIDLATW [Y16R]	2.44
TQHLPRECLPENLGGIVKIDLATW [Y16I]	2.29
TQHLPRECLPENLGGCVKIDLATW [Y16C]	2.48
TQHLPRECLPENLGGTVKIDLATW [Y16T]	3.02
TQHLPRECLPENLGGAVKIDLATW [Y16A]	3.01
TQHLPRECLPENLGGQVKIDLATW [Y16Q]	2.67
TQHLPRECLPENLGGFVKIDLATW [Y16F]	1.66
TQHLPRECLPENLGGDVKIDLATW [Y16D]	3.39
TQHLPRECLPENLGGMVKIDLATW [Y16M]	2.35

Variant	protein stability index
TQHLPRECLPENLGGPVKIDLATW [Y16P]	3.04
TQHLPRECLPENLGGGVKIDLATW [Y16G]	2.87
TQHLPRECLPENLGGNVKIDLATW [Y16N]	3.17
TQHLPRECLPENLGGWVKIDLATW [Y16W]	1.5
TQHLPRECLPENLGGHVKIDLATW [Y16H]	2.41
TQHLPRECLPENLGGSVKIDLATW [Y16S]	2.62
TQHLPRECLPENLGGLVKIDLATW [Y16L]	1.98
TQHLPRECLPENLGGVVKIDLATW [Y16V]	2.35
TQHLPRECLFENLGGYVKIDLATW [P10F]	1.97
TQHLPRECLDENLGGYVKIDLATW [P10D]	1.88
TQHLPRECLYENLGGYVKIDLATW [P10Y]	1.68
TQHLPRECLMENLGGYVKIDLATW [P10M]	2.04
TQHLPRECLHENLGGYVKIDLATW [P10H]	1.91
TQHLPRECLIENLGGYVKIDLATW [P10I]	1.61
TQHLPRECLCENLGGYVKIDLATW [P10C]	1.8
TQHLPRECLKENLGGYVKIDLATW [P10K]	1.77
TQHLPRECLAENLGGYVKIDLATW [P10A]	1.64
TQHLPRECLEENLGGYVKIDLATW [P10E]	2.44
TQHLPRECLVENLGGYVKIDLATW [P10V]	1.82
TQHLPRECLGENLGGYVKIDLATW [P10G]	1.72
TQHLPRECLTENLGGYVKIDLATW [P10T]	1.62
TQHLPRECLQENLGGYVKIDLATW [P10Q]	1.6
TQHLPRECLWENLGGYVKIDLATW [P10W]	1.85
TQHLPRECLRENLGGYVKIDLATW [P10R]	2.24

Variant	protein stability index
TQHLPRECLLENLGGYVKIDLATW [P10L]	1.55
TQHLPRECLNENLGGYVKIDLATW [P10N]	2.23
TQHLPRECLSENLGGYVKIDLATW [P10S]	2.49
TQHLPRDCLPENLGGYVKIDLATW [E7D]	2.2
TQHLPRLCLPENLGGYVKIDLATW [E7L]	2.25
TQHLPRGCLPENLGGYVKIDLATW [E7G]	1.62
TQHLPRYCLPENLGGYVKIDLATW [E7Y]	2.19
TQHLPRWCLPENLGGYVKIDLATW [E7W]	1.93
TQHLPRTCLPENLGGYVKIDLATW [E7T]	1.42
TQHLPRPCLPENLGGYVKIDLATW [E7P]	2.52
TQHLPRRCLPENLGGYVKIDLATW [E7R]	2.5
TQHLPRMCLPENLGGYVKIDLATW [E7M]	2.33
TQHLPRNCLPENLGGYVKIDLATW [E7N]	1.86
TQHLPRKCLPENLGGYVKIDLATW [E7K]	1.52
TQHLPRQCLPENLGGYVKIDLATW [E7Q]	1.63
TQHLPRSCLPENLGGYVKIDLATW [E7S]	1.94
TQHLPRFCLPENLGGYVKIDLATW [E7F]	1.74
TQHLPRVCLPENLGGYVKIDLATW [E7V]	2.22
TQHLPRHCLPENLGGYVKIDLATW [E7H]	1.85
TQHLPRICLPENLGGYVKIDLATW [E7I]	2.52
